Values of other authors in patent US7833964B2, “Methods of reducing visceral fat by increasing levels of insulin-like growth factor-I (IGF-I)” (Tercica, Inc., priority 2003, dated 2010).

Columns and labels:
[1] = tested on: Type I IGF receptor of rat and mouse cells; settings: relative to IGF-I; cited from earlier work
[2] = molecular target: T1, human placental Type I IGF receptor (Homo sapiens, UniProt P08069); settings: relative to the comparator named in the value; cited from earlier work
T1 construct: the human placental Type I IGF receptor; host or cells: human placenta (endogenous receptor)

[3] = molecular target: T2, placental insulin receptor (Homo sapiens, UniProt P06213); settings: relative to the comparator named in the value; cited from earlier work
T2 construct: the placental insulin receptor; host or cells: placenta (endogenous receptor)

Type 2 IGF receptor = settings: relative to human IGF-I; cited from earlier work

| Substance | affinity to the Type I IGF receptor of rat and mouse cells [1] | affinity to the Type I IGF receptor [2] | affinity to the insulin receptor [3] | affinity to the Type 2 IGF receptor (Type 2 IGF receptor) |
| --- | --- | --- | --- | --- |
| (Leu^24)IGF-I: functional mutant of IGF-I described in Cascieri et al. 1988 | lower affinity than IGF-I | lower affinity than IGF-I | lower affinity than IGF-I |  |
| (Phe^23, Phe^24, Tyr^25)IGF-I: functional mutant of IGF-I described in Cascieri et al. 1988 |  | equipotent to human IGF-I | equipotent to human IGF-I | equipotent to human IGF-I |
| (Ser^24)IGF-I: functional mutant of IGF-I described in Cascieri et al. 1988 | lower affinity than IGF-I | lower affinity than IGF-I | lower affinity than IGF-I |  |
